# Measured values: publication PMC4890720 (Methods in molecular biology (Clifton, N.J.), 2012)
# B1: thioredoxin (74–108) (domain or fragment, E. coli, UniProt P0AA25 75-109, looked up)
# chain: GIPTLLLFKNGEVAATKVGALSKGQLKEFLDANLA
# Target: thioredoxin (1–73) (E. coli, UniProt P0AA25 2-74 = thioredoxin)
# Assay: magic angle spinning solid-state NMR
# Chain of thioredoxin (1–73) (P0AA25 2-74): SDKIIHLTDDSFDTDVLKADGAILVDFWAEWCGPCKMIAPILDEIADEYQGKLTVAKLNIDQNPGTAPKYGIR
binder,measurement,value
B1,binding result,binds
